Measurements published in PMC5591402 (2017).
Residue numbers refer to the chain shown, from its start. Read-outs that look alike come from different tables or passages of the source. Where no end group is shown, it is not given here.

B1: N2.5 VHH (VHH)
VHH: QGQLVESGGGSVQAGGSLRLSCAASGIDSSSYCMGWFRQRPGKEREGVARINGLSGVKTAYADSVKDRFTISRDNAENTVYLQMNSLKPEDTAIYYCAAKSSPGYCGGTWFSFGYWGQGTQVTVSS
B2: N2.12 reversion mutant G53 (VHH)
VHH: B1 VHH with A49G, L54W, S55G, V57I, F111S, S112N
B3: N2.12 reversion mutant F96 (VHH)
VHH: B1 VHH with A49G, L54W, S55R, V57I, S101F, F111S, S112N
B4: N2.17 reversion mutant L52b (VHH)
VHH: B1 VHH with S55G, S112N
B5: N2.17 reversion mutant S100f (VHH)
VHH: B1 VHH with L54W, S55G, F111S, S112N
B6: N2.17 reversion mutant F96 (VHH)
VHH: B1 VHH with L54W, S55G, S101F, S112N
B7: N2.17 reversion mutant S100d (VHH)
VHH: B1 VHH with L54W, S55G, T109S, S112N
B8: N2.12 reversion mutant A49 (VHH)
VHH: B1 VHH with L54W, S55R, V57I, F111S, S112N
B9: N2.12 reversion mutant S100d (VHH)
VHH: B1 VHH with A49G, L54W, S55R, V57I, T109S, F111S, S112N
B10: N2.12 reversion mutant L52b (VHH)
VHH: B1 VHH with A49G, S55R, V57I, F111S, S112N
B11: N2.16 VHH (VHH)
VHH: B1 VHH with A49G, L54W, F111Y, S112N
B12: TAMRA-labeled α-synuclein peptide (peptide)
peptide: GYQDYEPEA
modifications: also: TAMRA fluorophore, position not given here

What was measured:
Experiment in all cases: FP
[1] = target: B12
[2] = target: B12
I55V/N2.12 = target: I55V/N2.12
N2.8 = target: N2.8
N2.2 = target: N2.2
N2.15 = target: N2.15
N2.3 = target: N2.3
N2.6 = target: N2.6
N2.9 = target: N2.9
N2.4 = target: N2.4
N2.1 = target: N2.1
N2.13 = target: N2.13
N2.10 = target: N2.10
N2.14 = target: N2.14
N2.11 = target: N2.11
N2.7 = target: N2.7

Binder: B1
Kd [1]: 55.3 nM

Binder: B2
Kd [2]: 14.1 nM

Binder: B3
Kd [2]: 18.6 nM

Binder: B4
Kd [2]: 30 nM

Binder: B5
Kd [2]: 11 nM

Binder: B6
Kd [2]: 72.2 nM

Binder: B7
Kd [2]: 27.5 nM

Binder: B8
Kd [2]: 8.2 nM

Binder: B9
Kd [2]: 11.9 nM

Binder: B10
Kd [2]: 16.9 nM

Binder: B11
Kd [1]: 11.2 nM

Binder: B12
Kd (I55V/N2.12): 5.7 nM
Kd (N2.8): 28.5 nM
Kd (N2.2): 23 nM
Kd (N2.15): 23.1 nM
Kd (N2.3): 11.4 nM
Kd (N2.6): 25.1 nM
Kd (N2.9): 28 nM
Kd (N2.4): 14.3 nM
Kd (N2.1): 14.3 nM
Kd (N2.13): 20.3 nM
Kd (N2.10): 31.6 nM
Kd (N2.14): 16.2 nM
Kd (N2.11): 21.6 nM
Kd (N2.7): 15.1 nM
